In PMC5278647 (Biochemistry, 2016):

Target: T1, his-tagged F110A variant of human ferrochelatase (FECH), recombinant from E. coli (human, UniProt P22830 55-423, F110A)
T1 sequence (looked up): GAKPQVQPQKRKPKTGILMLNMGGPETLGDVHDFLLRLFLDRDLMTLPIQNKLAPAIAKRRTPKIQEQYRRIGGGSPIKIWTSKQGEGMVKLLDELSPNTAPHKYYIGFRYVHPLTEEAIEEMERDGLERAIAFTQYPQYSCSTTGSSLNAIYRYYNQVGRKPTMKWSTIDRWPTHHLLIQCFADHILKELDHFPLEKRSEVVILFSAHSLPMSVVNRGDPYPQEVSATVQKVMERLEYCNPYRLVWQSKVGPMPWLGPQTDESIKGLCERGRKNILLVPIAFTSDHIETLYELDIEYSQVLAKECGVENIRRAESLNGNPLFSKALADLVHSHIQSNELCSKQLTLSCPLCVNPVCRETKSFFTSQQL
Assay: pull-down

fold of PGRMC1 recovered (against wild-type FECH): > 2 fold
B1: non-tagged full length human PGRMC1, recombinant from E. coli (natural protein)
chain: not shown
